{
  "source": "patent US8088387B2",
  "about": "“Method of targeting specific cell populations using cell-binding agent maytansinoid conjugates linked via a non-cleavable linker, said conjugates, and methods of making said conjugates” (Immunogen Inc., priority 2003, dated 2012)",
  "molecules": {"B1": {"name": "huC242-SMCC-DM1: huC242 antibody linked to maytansinoid DM1 via the non-cleavable linker SMCC (conjugate, chains of the INN, looked up)", "VH": "QVQLVQSGAEVKKPGETVKISCKASDYTFTYYGMNWVKQAPGQGLKWMGWIDTTTGEPTYAQKFQGRIAFSLETSASTAYLQIKSLKSEDTATYFCARRGPYNWYFDVWGQGTTVTVSS", "VL": "DIVMTQSPLSVPVTPGEPVSISCRSSKSLLHSNGNTYLYWFLQRPGQSPQLLIYRMSNLVSGVPDRFSGSGSGTAFTLRISRVEAEDVGVYYCLQHLEYPFTFGPGTKLELK", "modifications": "DM1 via SMCC linker"}},
  "key": {"[1]": {"system": "COLO 205 cells", "test": "indirect FACS binding assay on COLO 205 cells", "set-up": "species or system human", "details": "5×10^3 cells per well, three hour primary incubation on ice", "method": "The inventors carried out binding and cytotoxicity studies on the huC242-non-S-containing non-cleavable linker-DM1 conjugate. First, the binding affinities of huC242 antibody, huC242-SMNP-DM3, and huC242-non-S-containing non-cleavable linker-DM1 to COLO 205 cells were compared. 5×10^3 cells per well were used, with a three hour primary incubation on ice. The huC242-non-S-containing non-cleavable linker-DM1 conjugate had about a two-fold higher apparent dissociation constant than free antibody (see FIG. 23)."}, "[2]": {"system": "SKBR3 cells", "test": "continuous exposure clonogenic assay, antigen-positive cells", "format": "cell-based, human", "description": "(§1) Cell-binding agent maytansinoid conjugates of the invention can be evaluated for their ability to suppress proliferation of various cell lines in vitro. For example, cell lines such as the human colon carcinoma line COLO205, the human melanoma cell line A375, the human myeloid leukemia cell line HL60, the human breast carcinoma line SKBR3, or the human epidermoid carcinoma cell line KB can be used for the assessment of cytotoxicity of these conjugates. Cells to be evaluated can be exposed to the compounds for 24 hours and the surviving fractions of cells measured in direct assays by known methods. (See, e.g. Goldmacher et al., 135 J. Immunol. 3648-3651 (1985), and Goldmacher et al., 102 J. Cell Biol. 1312-1319 (1986).) IC50 values can then be calculated from the results of the assays.\n(§2) The in vitro cytotoxicity and specificity of the huC242-SMCC-DM1 conjugate were evaluated using a continuous exposure clonogenic assay."}, "[3]": {"system": "A375 cells", "test": "continuous exposure clonogenic assay, antigen-negative cells", "format": "cell-based, human", "description": "as §1, §2"}, "[4]": {"test": "in vitro clonogenic / indirect cytotoxicity assays, cell line not given", "format": "cell-based", "details": "clonogenic (FIG. 6A-C) and indirect cytotoxicity assays (FIG. 7)", "description": "as §1"}, "[5]": {"system": "COLO 205 colon tumor xenografts", "test": "COLO 205 colon tumor xenografts in SCID mice", "format": "in vivo", "method": "(§3) Antibody conjugates with DM1 using the SMCC linker show anti-tumor efficacy against human tumor xenografts in mice (FIGS. 10A-C). […] In this experiment, one group of five animals bearing established subcutaneous tumors was treated with huC242-SMCC-DM1 at a dose of 150 μg/kg of conjugated DM1. Tumor sizes were measured periodically and graphed vs. time after tumor inoculation. […] In this experiment, three groups of five animals each bearing established subcutaneous SNU tumors were treated with huC242-SMCC-DM1 at doses of 15 μg/kg, 30 μg/kg, and 60 μg/kg of conjugated DM1, respectively. Tumor sizes were measured periodically and graphed vs. time after tumor inoculation."}, "[6]": {"system": "SNU16 human gastric tumor xenografts", "test": "SNU16 human gastric tumor xenografts in SCID mice", "format": "in vivo", "method": "as §3"}, "[7]": {"test": "plasma clearance of conjugates", "format": "in vivo", "description": "This is in sharp contrast to plasma clearance of conjugates prepared with relatively labile disulfide bonds such as huC242-SPP-DM1. […] The non-cleavable SMCC linkage is therefore much more resistant to maytansinoid-linker cleavage activities present in vivo than the SPP-DM1 conjugate. […] This increased exposure could have substantial impact on drug efficacy in some cases."}, "[8]": {"test": "acute toxicity test, single intravenous dose", "format": "in vivo, female CD-1 mice", "details": "single intravenous dose", "method": "Maytansinoid conjugates prepared with non-cleavable linkers such as SMCC show an unexpected increased tolerability in mice compared with conjugates prepared with cleavable disulfide linkers. An acute toxicity test with a single intravenous dose was carried out in female CD-1 mice. A comparison of the tolerability of a huC242-SMCC-DM1 conjugate (non-cleavable) with huC242 conjugates prepared with linkers containing cleavable disulfide bonds was conducted by monitoring the death of mice (FIGS. 12A and B) and signs of toxicity (FIGS. 12C and D) over a series of four escalating doses of each conjugate. The maximum tolerated dose (MTD) for the SMCC-DM1 conjugate was greater than the highest dose tested (150 mg/kg) while the MTD for the disulfide-linked conjugate SPP-DM1 was in the range of 45-90 mg/kg."}, "[9]": {"system": "COLO205 cells", "test": "cell cycle arrest by flow cytometry", "format": "cell-based, human", "details": "30 hours post-treatment", "method": "Maytansinoid conjugates are thought to impart their cell destroying activity through the inhibition of microtubule polymerization. This inhibition of microtubule polymerization leads to an arrest of the cell cycle principally at G2/M. The antigen-dependent arrest of cells at G2/M by antibody-maytansinoid conjugates can be monitored by flow cytometry analysis (FIG. 13). Treatment of COLO205 cells with huC242-SPP-DM1 or huC242-SMCC-DM1 conjugate results in a complete G2/M arrest by 6-10 hours. […] The difference in the durability of the activity of these two conjugates is also reflected in percentage of dead cells at the 30 hour time point, as judged by a dye exclusion assay using trypan blue."}, "[10]": {"system": "COLO 205 cell line", "test": "cell destroying activity, antigen-positive cells (bystander study)", "format": "cell-based, human", "details": "COLO 205 cultured separately", "description": "(§4) An additional aspect of conjugates prepared with non-cleavable linkers compared to conjugates that have cleavable disulfide linkers is the absence of activity toward antigen-negative cells when in close proximity to antigen-positive cells, termed here the bystander effect. That is, the conjugates prepared with non-cleavable linkers have minimal bystander activity. […] This minimal bystander activity of the non-cleavable conjugate, as measured in this in vitro assay, may contribute to the increased tolerability of conjugate with non-cleavable linkers observed in acute toxicity studies."}, "[11]": {"system": "Namalwa cells", "test": "cell destroying activity, antigen-negative cells (bystander study)", "format": "cell-based", "description": "as §4"}, "[12]": {"test": "Pharmacokinetic Studies of huC242-SPP-DM1 and huC242-SCC-DM1 conjugates inCD-1 Mice Plasma clearance curves and Pharmacokinetic parameters", "description": "Table printed on a drawing sheet, FIG. 11\nTitle: Pharmacokinetic Studies of huC242-SPP-DM1 and huC242-SCC-DM1 conjugates inCD-1 Mice Plasma clearance curves and Pharmacokinetic parameters\nFirst reader's note: Rows without -DM1 (huC242-SMCC, huC242-SPP) appear to be the antibody component of the same conjugates, as in the plot legend; study in CD-1 mice."}, "[13]": {"details": "150 μg/kg of conjugated DM1, of five animals"}},
  "data": [
    {"molecule": "B1", "values": [
      {"measurement": "Kd", "setting": "[1]", "result": 0.552, "unit": "nM"},
      {"measurement": "IC50", "setting": "[2]", "result": 0.0035, "unit": "nM"},
      {"measurement": "fold less sensitive than SKBR3 cells", "setting": "[3]; antigen negative A375 vs antigen positive SKBR3", "result": "about 800 fold"},
      {"measurement": "IC50", "setting": "[3]; antigen-negative A375 cells, continuous exposure clonogenic assay", "result": "> 3", "unit": "nM"},
      {"measurement": "potency compared to conjugates prepared with disulfide-containing linkers", "setting": "[4]", "result": "equal or greater potency"},
      {"measurement": "tumor response", "setting": "[5]; 150 μg/kg of conjugated DM1, five animals, established subcutaneous tumors", "result": "All five treated animals had a complete remission"},
      {"measurement": "animals that relapsed after complete remission", "setting": "[5]; [13]", "result": "three"},
      {"measurement": "animals tumor-free until termination of the experiment", "setting": "[5]; [13]", "result": "two"},
      {"measurement": "effect on mouse body weight", "setting": "[5]; at conjugate doses with anti-tumor activity", "result": "no effect on mouse body weight"},
      {"measurement": "time some mice remained free of detectable tumors post-treatment", "setting": "[5]; sentence citing FIG. 10B, text prints COLO 205", "result": "over 2 months"},
      {"measurement": "tumor response (sentence citing FIG. 10B)", "setting": "[5]; text prints COLO 205 colon carcinoma xenografts", "result": "complete regression of tumors"},
      {"measurement": "antitumor effect", "setting": "[6]; 15, 30 and 60 μg/kg of conjugated DM1, established subcutaneous SNU tumors", "result": "dose-dependent antitumor effect"},
      {"measurement": "effect on mouse body weight", "setting": "[6]; at active conjugate concentration", "result": "no effect on mouse body weight"},
      {"measurement": "increase in overall maytansinoid exposure (AUC) compared to SPP-DM1 conjugates", "setting": "[7]; area under the curve", "result": "~5", "unit": "fold"},
      {"measurement": "half-life for clearance", "setting": "[7]; plasma, conjugate, FIG. 11", "result": "approximately 320 hours"},
      {"measurement": "survival / lethal toxicity", "setting": "[8]; at 150 mg/kg", "result": "all mice in the SMCC-DM1 treated group survived"},
      {"measurement": "maximum tolerated dose (MTD)", "setting": "[8]; female CD-1 mice", "result": "> 150", "unit": "mg/kg"},
      {"measurement": "durability of cell cycle arrest", "setting": "[9]", "result": "do not escape from the cell cycle block"},
      {"measurement": "cell destroying activity", "setting": "[10]", "result": "potent cell destroying activity"},
      {"measurement": "cell destroying activity", "setting": "[11]; Namalwa cultured separately", "result": "no activity"},
      {"measurement": "bystander cell destroying activity toward Namalwa cells", "setting": "[11]; co-cultures of COLO 205 and Namalwa cells", "result": "No cell destroying activity"},
      {"measurement": "AUC |", "setting": "[12]", "result": 40374.2, "unit": "µg·h/mL"},
      {"measurement": "CL |", "setting": "[12]", "result": 7.2, "unit": "mL/day/kg"},
      {"measurement": "Vss |", "setting": "[12]", "result": 0.1125, "unit": "L/kg"},
      {"measurement": "t1/2 | hour", "setting": "[12]", "result": 13.26, "unit": "days"}
    ]}
  ]
}
